# B1: bacteriophage MS2 coat protein, wildtype (MS2[WT]) (natural protein)
# chain: ASNFTQFVLVDNGGTGDVTVAPSNFANGVAEWISSNSRSQAYKVTCSVRQSSAQNRKYTIKVEVPKVATQTVGGVELPVAAWRSYLNMELTIPIFATNSDCELIVKAMQGLLKDGNPIPSAIAANSGIY
# Biological target: the molecule itself
# Test: SEC
protein,measurement,value
B1,binding result,binds

# Source: publication doi:10.1101/2021.12.21.473721 (bioRxiv, 2021)
